In this test the target is Kapβ2 Δloop (human) (UniProt Q92973). The test can be described thus: AUC.
Sequence of Kapβ2 Δloop (human) (Q92973 9-898, stated change not applied): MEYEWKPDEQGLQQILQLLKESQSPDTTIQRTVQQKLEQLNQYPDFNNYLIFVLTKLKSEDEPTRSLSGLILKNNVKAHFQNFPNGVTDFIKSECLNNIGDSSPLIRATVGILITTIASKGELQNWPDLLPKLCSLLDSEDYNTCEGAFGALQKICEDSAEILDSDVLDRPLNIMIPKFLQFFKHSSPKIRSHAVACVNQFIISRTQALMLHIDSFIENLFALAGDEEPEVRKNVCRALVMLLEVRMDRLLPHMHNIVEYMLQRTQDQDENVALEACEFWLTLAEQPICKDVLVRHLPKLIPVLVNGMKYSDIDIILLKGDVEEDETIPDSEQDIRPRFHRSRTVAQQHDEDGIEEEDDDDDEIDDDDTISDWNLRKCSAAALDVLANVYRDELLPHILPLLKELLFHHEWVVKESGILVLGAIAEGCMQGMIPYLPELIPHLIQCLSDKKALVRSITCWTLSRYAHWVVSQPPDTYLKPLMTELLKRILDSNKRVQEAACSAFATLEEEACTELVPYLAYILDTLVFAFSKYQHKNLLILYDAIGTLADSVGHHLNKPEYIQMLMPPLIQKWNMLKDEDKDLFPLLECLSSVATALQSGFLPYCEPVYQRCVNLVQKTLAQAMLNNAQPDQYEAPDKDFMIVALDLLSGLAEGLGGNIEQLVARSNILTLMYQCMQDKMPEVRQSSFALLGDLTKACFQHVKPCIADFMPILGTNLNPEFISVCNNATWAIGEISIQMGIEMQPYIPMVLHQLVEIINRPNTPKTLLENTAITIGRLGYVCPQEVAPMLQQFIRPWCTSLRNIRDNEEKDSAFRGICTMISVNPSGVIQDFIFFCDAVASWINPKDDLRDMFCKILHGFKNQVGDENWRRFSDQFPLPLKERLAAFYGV

Regarding PRPRPRPRPRPRPRPRPRPRPRPRPRPRPRPRPRPR [maltose-binding protein (MBP)-PR18], the stoichiometry N is 1.

As a reminder, the stoichiometry N is a count of units in the complex or per binding partner.

These data come from article doi:10.1101/2024.07.03.601791.
